Assay results taken from PMC2680492 (The Journal of neuroscience : the official journal of the …, 2008).

B1: GST-tagged parkin RING1 domain (R1) (domain or fragment, human, UniProt O60260 217-310, looked up)
chain: TSDKETSVALHLIATNSRNITCITCTDVRSPVLVFQCNSRHVICLDCFHLYCVTRLNDRQFVHDPQLGYSLPCVAGCPNSLIKELHHFRILGEE
B2: GST-tagged parkin Linker domain (L) (domain or fragment, human, UniProt O60260 77-237, looked up)
chain: GQEMNATGGDDPRNAAGGCEREPQSLTRVDLSSSVLPGDSVGLAVILHTDSRKDSPPAGSPAGRSIYNSFYVYCKGPCQRVQPGKLRVQCSTCRQATLTLTQGPSCWDDVLIPNRMSGECQSPHCPGTSAEFFFKCGAHPTSDKETSVALHLIATNSRNIT
B3: GST-tagged parkin RING2 domain (R2) (domain or fragment, human, UniProt O60260 395-465, looked up)
chain: ERAAEQARWEAASKETIKKTTKPCPRCHVPVEKNGGCMHMKCPQPQCRLEWCWNCGCEWNRVCMGDHWFDV

Key:
Assay in all cases: pull-down
[1] = target: T1, His×6-DD1-FLAG (human, UniProt Q9UBN7 106-439)
T1 sequence (looked up): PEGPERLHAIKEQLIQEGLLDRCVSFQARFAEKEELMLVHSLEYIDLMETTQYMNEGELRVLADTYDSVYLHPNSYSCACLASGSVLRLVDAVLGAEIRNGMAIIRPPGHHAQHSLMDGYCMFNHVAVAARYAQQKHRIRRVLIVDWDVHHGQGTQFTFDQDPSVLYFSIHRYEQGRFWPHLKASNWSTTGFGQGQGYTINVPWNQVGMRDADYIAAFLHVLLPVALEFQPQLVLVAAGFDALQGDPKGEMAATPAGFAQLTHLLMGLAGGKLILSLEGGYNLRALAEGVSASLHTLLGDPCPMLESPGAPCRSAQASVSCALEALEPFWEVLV

[2] = target: T2, His×6-HDAC6-FLAG (human, UniProt Q9UBN7 1-1215)
T2 sequence (looked up): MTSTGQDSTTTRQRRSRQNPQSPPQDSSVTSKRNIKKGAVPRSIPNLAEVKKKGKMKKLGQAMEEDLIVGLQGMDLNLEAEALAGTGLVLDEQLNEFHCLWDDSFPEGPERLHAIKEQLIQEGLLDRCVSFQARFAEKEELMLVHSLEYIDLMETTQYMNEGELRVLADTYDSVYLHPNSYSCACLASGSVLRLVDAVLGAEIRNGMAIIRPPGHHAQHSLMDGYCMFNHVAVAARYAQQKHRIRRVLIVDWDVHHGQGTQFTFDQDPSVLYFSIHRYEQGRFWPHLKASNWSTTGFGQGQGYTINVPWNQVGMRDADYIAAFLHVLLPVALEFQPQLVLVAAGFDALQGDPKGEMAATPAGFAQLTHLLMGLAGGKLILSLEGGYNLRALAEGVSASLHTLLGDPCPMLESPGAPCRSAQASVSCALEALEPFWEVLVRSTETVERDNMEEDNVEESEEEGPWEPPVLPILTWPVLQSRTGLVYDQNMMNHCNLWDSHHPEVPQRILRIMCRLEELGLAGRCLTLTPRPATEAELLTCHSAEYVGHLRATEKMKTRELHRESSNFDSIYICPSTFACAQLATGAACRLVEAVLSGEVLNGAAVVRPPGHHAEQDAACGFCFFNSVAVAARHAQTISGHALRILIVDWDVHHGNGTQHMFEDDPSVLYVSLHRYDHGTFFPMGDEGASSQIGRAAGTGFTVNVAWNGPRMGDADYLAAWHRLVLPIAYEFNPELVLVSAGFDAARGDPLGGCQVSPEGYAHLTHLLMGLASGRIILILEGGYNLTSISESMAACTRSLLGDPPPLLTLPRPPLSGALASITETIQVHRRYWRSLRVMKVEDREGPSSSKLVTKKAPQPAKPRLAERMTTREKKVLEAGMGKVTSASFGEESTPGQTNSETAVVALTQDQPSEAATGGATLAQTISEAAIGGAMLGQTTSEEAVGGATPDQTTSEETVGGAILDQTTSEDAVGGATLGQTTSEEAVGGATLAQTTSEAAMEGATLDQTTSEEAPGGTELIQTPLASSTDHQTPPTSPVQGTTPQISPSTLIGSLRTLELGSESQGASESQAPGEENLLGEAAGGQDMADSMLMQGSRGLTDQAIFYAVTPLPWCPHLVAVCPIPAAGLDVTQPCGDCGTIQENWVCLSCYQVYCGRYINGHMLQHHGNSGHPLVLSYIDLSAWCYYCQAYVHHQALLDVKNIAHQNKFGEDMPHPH

[3] = target: T3, His×6-DD2-FLAG (human, UniProt Q9UBN7 440-840)
T3 sequence (looked up): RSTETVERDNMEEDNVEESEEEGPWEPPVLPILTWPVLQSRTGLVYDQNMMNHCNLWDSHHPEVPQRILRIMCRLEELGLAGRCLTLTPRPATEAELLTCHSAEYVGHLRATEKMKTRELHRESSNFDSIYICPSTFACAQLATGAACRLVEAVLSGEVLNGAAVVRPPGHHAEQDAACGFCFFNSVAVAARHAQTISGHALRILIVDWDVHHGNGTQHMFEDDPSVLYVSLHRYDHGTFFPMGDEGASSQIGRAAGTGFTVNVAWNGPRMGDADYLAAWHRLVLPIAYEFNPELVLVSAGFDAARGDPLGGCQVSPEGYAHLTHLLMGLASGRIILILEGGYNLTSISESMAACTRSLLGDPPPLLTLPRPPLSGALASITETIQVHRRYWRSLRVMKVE

Row | Binder | binding result [1] | binding result [2] | binding result [3]
1 | B1 | binds | binds | –
2 | B2 | binds | binds | –
3 | B3 | – | binds | binds
